The numbers were not newly measured in paper PMC3652491, which cites them from elsewhere.

This data set addresses Nef peptide 12-residue peptide (Human immunodeficiency virus 1) (UniProt P04324).

As to Hck SH3 (from UniProt P08631), the Kd is 90 µM.
